Data on four molecules can be found in patent US20140087995A1 (published 2014).

Numbered stars: 1 amine (or outer) side, 2 acyl side, 3 side chain; on linkers, the order of the positions; unused ones are H or OH. Bridge positions count the residues as written; N and C are the ends. Side chains are listed from the residue outwards. Ends that are not written are not given here. * marks the point of attachment. C20 diacid = O=C(O)CCCCCCCCCCCCCCCCCCC(=O)*; C18 diacid = O=C(O)CCCCCCCCCCCCCCCCC(=O)*; C16 diacid = O=C(O)CCCCCCCCCCCCCCC(=O)*; γGlu = O=C(O)[C@H](CCC(=O)[*:2])N[*:1]

Experiment [1] has as its target T1, rat calcitonin receptor (rat, UniProt P32214 25-516).
T1 construct: whole, on cells; Membranes of transiently transfected BHK tk'ts 13 cells; also called rCTR; rat calcitonin (a) receptor
T1 sequence (looked up): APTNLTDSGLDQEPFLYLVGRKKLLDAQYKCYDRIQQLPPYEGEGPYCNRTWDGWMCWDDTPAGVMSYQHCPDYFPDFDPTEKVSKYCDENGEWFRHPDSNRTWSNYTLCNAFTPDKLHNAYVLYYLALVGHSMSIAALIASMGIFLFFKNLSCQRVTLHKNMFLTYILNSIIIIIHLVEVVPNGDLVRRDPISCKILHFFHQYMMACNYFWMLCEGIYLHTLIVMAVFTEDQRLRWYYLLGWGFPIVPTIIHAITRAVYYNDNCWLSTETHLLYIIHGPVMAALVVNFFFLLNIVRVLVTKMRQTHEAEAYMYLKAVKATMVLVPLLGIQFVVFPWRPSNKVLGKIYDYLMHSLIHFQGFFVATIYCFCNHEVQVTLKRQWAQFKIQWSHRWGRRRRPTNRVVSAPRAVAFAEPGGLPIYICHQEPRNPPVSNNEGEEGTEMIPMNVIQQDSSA
The experiment is described as follows: ratio of IC50 on rat calcitonin receptor to IC50 on rat amylin receptor (reference m40).

Experiment [2] has as its target T2, human calcitonin receptor (human, UniProt P30988 25-474).
T2 construct: whole, on cells; Membranes of stably transfected cells; also called hCTR; hCT
T2 sequence (looked up): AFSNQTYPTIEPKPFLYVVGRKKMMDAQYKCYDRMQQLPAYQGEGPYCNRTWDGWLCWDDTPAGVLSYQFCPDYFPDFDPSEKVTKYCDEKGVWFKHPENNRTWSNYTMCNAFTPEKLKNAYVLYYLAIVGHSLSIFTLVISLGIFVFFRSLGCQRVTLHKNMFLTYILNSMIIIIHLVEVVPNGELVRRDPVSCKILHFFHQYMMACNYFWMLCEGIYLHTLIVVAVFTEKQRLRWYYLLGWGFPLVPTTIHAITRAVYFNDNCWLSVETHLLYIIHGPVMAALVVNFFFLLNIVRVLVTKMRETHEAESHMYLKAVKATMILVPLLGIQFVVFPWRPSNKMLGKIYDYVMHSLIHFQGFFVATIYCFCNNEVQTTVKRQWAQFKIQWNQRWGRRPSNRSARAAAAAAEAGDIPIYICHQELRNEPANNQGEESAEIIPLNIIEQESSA
The experiment is described as follows: ratio of IC50 on human calcitonin receptor to IC50 on human amylin receptor (reference m42), SPA competition. As for the experimental part: The resulting pellet was resuspended, homogenized and centrifuged (20.000 rpm, 15 min) in a buffer containing 20 mM Na-HEPES and 0.1 mM EDTA (pH 7.4, buffer 2). The resulting pellet was resuspended in buffer 2 and protein concentration was measured (BCA protein Assay, Pierce). The homogenate was kept cold during the whole procedure. The membranes were kept at −80° C. until use. The assay was performed in a 384 well Optiplate (PerkinElmer) in a total volume of 40 ul. Membranes were mixed with SPA beads. Final concentration of membranes 35 ng/μL final and SPA beads was 0.05 mg/well. Test-compounds were dissolved in DMSO and further diluted in assay buffer (50 mM Hepes, pH 7.4, 1 mM CaCl2, 5 mM MgCl₂, 0.1% OA and 0.02% Tween20). […] The final mixture was incubated with shaking at 400 rpm for 120 min at 25° C. prior to centrifugation (1500 rpm, 10 min). Samples were analyzed on TopCounter™ (Packard). The IC₅₀ was calculated using (one site binding competition analysis) GraphPad Prism5 as a measure of receptor affinity.
Membranes were prepared in the following way; the cells were rinsed with PBS and incubated with Versene for approximately 5 min before harvesting. The cells were flushed with PBS and the cell-suspension was centrifuged for 5 min at 1000 rpm. Cells were homogenized (Ultrathurrax) in a buffer containing 20 mM Na-HEPES and 10 mM EDTA (pH 7.4) and centrifuged at 20.000 rpm for 15 min. The resulting pellet was resuspended, homogenized and centrifuged (20.000 rpm, 15 min) in a buffer containing 20 mM Na-HEPES and 0.1 mM EDTA (pH 7.4, buffer 2). The resulting pellet was resuspended in buffer 2 and protein concentration was measured (BCA protein Assay, Pierce). The homogenate was kept cold during the whole procedure. The membranes were kept at −80° C. until use. Assay was performed in a 384 well Optiplate (PerkinElmer) in a total volume of 40 ul. Membranes were mixed with SPA beads.

The target in experiment [3] is T1, rat calcitonin receptor. Kind of experiment: SPA competition with 125I-calcitonin on membranes of BHK tk'ts 13 cells with rat calcitonin receptor (Assay VIII).
Experiment [4] addresses T3, rat amylin receptor (rat calcitonin receptor + rat RAMP 3) (rat, UniProt P32214 25-516; Q9JJ73 23-147).
T3 construct: whole, on cells; Membranes of transiently transfected BHK tk'ts 13 cells; also called rAmylin-R; rat amylin 3(a) receptor
T3 sequence (looked up) 1: T1 sequence (looked up)
T3 sequence (looked up) 2: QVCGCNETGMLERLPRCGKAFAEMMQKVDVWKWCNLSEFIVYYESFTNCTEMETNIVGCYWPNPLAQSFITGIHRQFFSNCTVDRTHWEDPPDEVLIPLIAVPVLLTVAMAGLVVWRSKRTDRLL
The experiment is described as follows: SPA competition with 125I-rat amylin on membranes of BHK tk'ts 13 cells with rat calcitonin receptor + rat RAMP3 (Assay VI).

B1: N^ε1-[(4S)-4-carboxy-4-(15-carboxypentadecanoylamino)butanoyl]-[Arg17,Pro21,Pro27,His34]-h-amylin (peptide)
peptide: K([γGlu-C16 diacid])CNTATCATQRLANFLRHSSPNFGAIPSSTNVGHNTY-NH2
modifications: disulfide 2-7; N-terminus assumed
SMILES: CC[C@H](C)[C@H](NC(=O)[C@H](C)NC(=O)CNC(=O)[C@H](Cc1ccccc1)NC(=O)[C@H](CC(N)=O)NC(=O)[C@@H]1CCCN1C(=O)[C@H](CO)NC(=O)[C@H](CO)NC(=O)[C@H](Cc1c[nH]cn1)NC(=O)[C@H](CCCNC(=N)N)NC(=O)[C@H](CC(C)C)NC(=O)[C@H](Cc1ccccc1)NC(=O)[C@H](CC(N)=O)NC(=O)[C@H](C)NC(=O)[C@H](CC(C)C)NC(=O)[C@H](CCCNC(=N)N)NC(=O)[C@H](CCC(N)=O)NC(=O)[C@@H](NC(=O)[C@H](C)NC(=O)[C@@H]1CSSC[C@H](NC(=O)[C@@H](N)CCCCNC(=O)CC[C@H](NC(=O)CCCCCCCCCCCCCCC(=O)O)C(=O)O)C(=O)N[C@@H](CC(N)=O)C(=O)N[C@@H]([C@@H](C)O)C(=O)N[C@@H](C)C(=O)N[C@@H]([C@@H](C)O)C(=O)N1)[C@@H](C)O)C(=O)N1CCC[C@H]1C(=O)N[C@@H](CO)C(=O)N[C@@H](CO)C(=O)N[C@H](C(=O)N[C@@H](CC(N)=O)C(=O)N[C@H](C(=O)NCC(=O)N[C@@H](Cc1c[nH]cn1)C(=O)N[C@@H](CC(N)=O)C(=O)N[C@H](C(=O)N[C@@H](Cc1ccc(O)cc1)C(N)=O)[C@@H](C)O)C(C)C)[C@@H](C)O
notes: Synthetic acylated analogue of human amylin
As a reminder, the IC50 is the concentration needed to halve the response being measured. With B1, in the experiment with rat calcitonin receptor [1], the “Ratio rCT/rAmylin binding” value stood at 327. Further, the “Ratio hCT/hAmylin binding” value in experiment [2] amounted to 18.5. Moreover, the IC50 in the experiment with rat calcitonin receptor [3] is 404 nM; in experiment [4], 1.24 nM.

B2: N^ε1-[(4S)-4-carboxy-4-(17-carboxyheptadecanoylamino)butanoyl]-[Arg17,Pro21,Pro27,His34]-h-amylin (peptide)
peptide: K([γGlu-C18 diacid])CNTATCATQRLANFLRHSSPNFGAIPSSTNVGHNTY-NH2
modifications: disulfide 2-7; N-terminus assumed
SMILES: CC[C@H](C)[C@H](NC(=O)[C@H](C)NC(=O)CNC(=O)[C@H](Cc1ccccc1)NC(=O)[C@H](CC(N)=O)NC(=O)[C@@H]1CCCN1C(=O)[C@H](CO)NC(=O)[C@H](CO)NC(=O)[C@H](Cc1c[nH]cn1)NC(=O)[C@H](CCCNC(=N)N)NC(=O)[C@H](CC(C)C)NC(=O)[C@H](Cc1ccccc1)NC(=O)[C@H](CC(N)=O)NC(=O)[C@H](C)NC(=O)[C@H](CC(C)C)NC(=O)[C@H](CCCNC(=N)N)NC(=O)[C@H](CCC(N)=O)NC(=O)[C@@H](NC(=O)[C@H](C)NC(=O)[C@@H]1CSSC[C@H](NC(=O)[C@@H](N)CCCCNC(=O)CC[C@H](NC(=O)CCCCCCCCCCCCCCCCC(=O)O)C(=O)O)C(=O)N[C@@H](CC(N)=O)C(=O)N[C@@H]([C@@H](C)O)C(=O)N[C@@H](C)C(=O)N[C@@H]([C@@H](C)O)C(=O)N1)[C@@H](C)O)C(=O)N1CCC[C@H]1C(=O)N[C@@H](CO)C(=O)N[C@@H](CO)C(=O)N[C@H](C(=O)N[C@@H](CC(N)=O)C(=O)N[C@H](C(=O)NCC(=O)N[C@@H](Cc1c[nH]cn1)C(=O)N[C@@H](CC(N)=O)C(=O)N[C@H](C(=O)N[C@@H](Cc1ccc(O)cc1)C(N)=O)[C@@H](C)O)C(C)C)[C@@H](C)O
notes: as for B1
B2: the “Ratio rCT/rAmylin binding” value with rat calcitonin receptor [1] amounted to 40.3. Further, in experiment [2], the “Ratio hCT/hAmylin binding” value turned out to be 59.4. For the same molecule, the IC50 with rat calcitonin receptor [3] was 47 nM; in experiment [4], 1.17 nM.

B3: N^ε1-[(4S)-4-carboxy-4-(19-carboxynonadecanoylamino)butanoyl]-[Ala14,Arg17,Pro21,Pro27,His34]-h-amylin (peptide)
peptide: K([γGlu-C20 diacid])CNTATCATQRLAAFLRHSSPNFGAIPSSTNVGHNTY-NH2
modifications: disulfide 2-7; N-terminus assumed
SMILES: CC[C@H](C)[C@H](NC(=O)[C@H](C)NC(=O)CNC(=O)[C@H](Cc1ccccc1)NC(=O)[C@H](CC(N)=O)NC(=O)[C@@H]1CCCN1C(=O)[C@H](CO)NC(=O)[C@H](CO)NC(=O)[C@H](Cc1c[nH]cn1)NC(=O)[C@H](CCCNC(=N)N)NC(=O)[C@H](CC(C)C)NC(=O)[C@H](Cc1ccccc1)NC(=O)[C@H](C)NC(=O)[C@H](C)NC(=O)[C@H](CC(C)C)NC(=O)[C@H](CCCNC(=N)N)NC(=O)[C@H](CCC(N)=O)NC(=O)[C@@H](NC(=O)[C@H](C)NC(=O)[C@@H]1CSSC[C@H](NC(=O)[C@@H](N)CCCCNC(=O)CC[C@H](NC(=O)CCCCCCCCCCCCCCCCCCC(=O)O)C(=O)O)C(=O)N[C@@H](CC(N)=O)C(=O)N[C@@H]([C@@H](C)O)C(=O)N[C@@H](C)C(=O)N[C@@H]([C@@H](C)O)C(=O)N1)[C@@H](C)O)C(=O)N1CCC[C@H]1C(=O)N[C@@H](CO)C(=O)N[C@@H](CO)C(=O)N[C@H](C(=O)N[C@@H](CC(N)=O)C(=O)N[C@H](C(=O)NCC(=O)N[C@@H](Cc1c[nH]cn1)C(=O)N[C@@H](CC(N)=O)C(=O)N[C@H](C(=O)N[C@@H](Cc1ccc(O)cc1)C(N)=O)[C@@H](C)O)C(C)C)[C@@H](C)O
notes: Synthetic acylated analogue of human amylin; also called compound 93
As for B3, the “Ratio rCT/rAmylin binding” value with rat calcitonin receptor [1] was 83.2. Also, in experiment [2], the “Ratio hCT/hAmylin binding” value is 101. Also, the IC50 is 131 nM with rat calcitonin receptor [3] and 1.58 nM in experiment [4].

B4: N^ε1-[(4S)-4-carboxy-4-(19-carboxynonadecanoylamino)butanoyl]-[Ala14,Arg17,Pro21,Pro27,Pro34]-h-amylin (peptide)
peptide: K([γGlu-C20 diacid])CNTATCATQRLAAFLRHSSPNFGAIPSSTNVGPNTY-NH2
modifications: disulfide 2-7; N-terminus assumed
SMILES: CC[C@H](C)[C@H](NC(=O)[C@H](C)NC(=O)CNC(=O)[C@H](Cc1ccccc1)NC(=O)[C@H](CC(N)=O)NC(=O)[C@@H]1CCCN1C(=O)[C@H](CO)NC(=O)[C@H](CO)NC(=O)[C@H](Cc1c[nH]cn1)NC(=O)[C@H](CCCNC(=N)N)NC(=O)[C@H](CC(C)C)NC(=O)[C@H](Cc1ccccc1)NC(=O)[C@H](C)NC(=O)[C@H](C)NC(=O)[C@H](CC(C)C)NC(=O)[C@H](CCCNC(=N)N)NC(=O)[C@H](CCC(N)=O)NC(=O)[C@@H](NC(=O)[C@H](C)NC(=O)[C@@H]1CSSC[C@H](NC(=O)[C@@H](N)CCCCNC(=O)CC[C@H](NC(=O)CCCCCCCCCCCCCCCCCCC(=O)O)C(=O)O)C(=O)N[C@@H](CC(N)=O)C(=O)N[C@@H]([C@@H](C)O)C(=O)N[C@@H](C)C(=O)N[C@@H]([C@@H](C)O)C(=O)N1)[C@@H](C)O)C(=O)N1CCC[C@H]1C(=O)N[C@@H](CO)C(=O)N[C@@H](CO)C(=O)N[C@H](C(=O)N[C@@H](CC(N)=O)C(=O)N[C@H](C(=O)NCC(=O)N1CCC[C@H]1C(=O)N[C@@H](CC(N)=O)C(=O)N[C@H](C(=O)N[C@@H](Cc1ccc(O)cc1)C(N)=O)[C@@H](C)O)C(C)C)[C@@H](C)O
notes: Synthetic acylated analogue of human amylin; also called compound 94
As to B4, the “Ratio rCT/rAmylin binding” value in the experiment with rat calcitonin receptor [1] amounted to 280. Besides, the “Ratio hCT/hAmylin binding” value in experiment [2] was determined as 46.3. Also, the figures for the IC50 (in the experiment with rat calcitonin receptor [3]; in experiment [4]) were 111 nM and 0.397 nM, respectively.
